Data on eleven sequences can be found in the supplement of paper PMC9170038.

The data set relates to MS2 coat protein. Nature of the data set: apparent KD of MS2 coat protein; designed switch direction (-1 OFF switch, 1 ON switch): 1; higher = weaker reporter binding. The gist of the method:
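SNAP-549-labelled MS2 coat protein was titrated, doubling from 0.7 or 1.5 nM to 3 µM, over designed RNA switches transcribed on Illumina chips by stalled E. coli RNA polymerase. Runs were done without input, with 200 uM small-molecule ligand, or with an oligonucleotide input. Apparent KD is the per-design median over clusters of curve-fitted normalised fluorescence.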

Where [1] appears, read: input ligand: microRNA oligo, concentration not stated.

For “AGAUCAUGACGAGGAUAUGGUACAUGAGGAUCACCCAUGUAUGUACCACGACGCGUACGUCGAAUCCAGAAGGCGUCAUGGUCA [Mat - Same State NG 2 - JL mod - D17] (Eterna round: R96, puzzle: Same State NG 2)”, the “apparent KD of MS2 coat protein” value stood at 17.8 nM (input ligand: FMN 200 uM), 51.3 nM under setting [1] and 119 nM (input ligand: none).

As to “AGAUCAUGACGAGGAUAUGGUACAUGAGGAUCACCCAUGUAUGUACCACGACGCGUACGUCGAAUCCAGAAGGCGUCGUGGUCA [JL SSNG2 1.07] (Eterna round: R96, puzzle: Same State NG 2)”, the “apparent KD of MS2 coat protein” value runs as follows: (input ligand: FMN 200 uM) 23.3 nM; under setting [1], 27.7 nM; (input ligand: none) 41.6 nM.

Regarding “AGAUCAUGACGAGGAUAUGGUACAUGAGGAUCACCCAUGUAUGUACUAUAAUCCGAAUGAGGAAUCCAGAAGGCGUCGUGGUCA [JL SSNG2 1.14] (Eterna round: R96, puzzle: Same State NG 2)”, the “apparent KD of MS2 coat protein” value is, setting by setting: (input ligand: FMN 200 uM) 44.9 nM; under setting [1], 94.1 nM; (input ligand: none) 145 nM.

Consider “AGCAUACAUGAGGAUCACCCAUGUCAACUUAGUCGAGGAUAUGGGCAGCCCUGAGGCGAACCAGAAGGCGAAUUGA [Mat - Same State 1 - Mod of JL - D1] (puzzle: Same State 1)”, for which the “apparent KD of MS2 coat protein” value is, setting by setting: (Eterna round: R95, input ligand: FMN 200 uM) 28.3 nM; (Eterna round: R95, input ligand: microRNA oligo, concentration not stated) 51.5 nM; (Eterna round: R95, input ligand: none) 66.1 nM.

For “AGCCGAAGCGCAGGAUAUACAUGUAUACAUGAGGAUCACCCAUGUAGCAACACGUGGUAGUGAUUGUAGAAGGGUGCUCGGCGC [Omei SS(NG)2 Cv15] (Eterna round: R96, puzzle: Same State NG 2)”, the “apparent KD of MS2 coat protein” value under setting [1] was 18.6 nM.

Take “AGCUAUUAAUCAGGAUAUGGUCACAUGAGGAUCACCCAUGUAACGAUGAUAUAAUGUGGUCAAAACUAGAAGGGAUUGCUAACA [SameState NG2 #65] (Eterna round: R96, puzzle: Same State NG 2)”: the “apparent KD of MS2 coat protein” value reads like this: (input ligand: FMN 200 uM) 341 nM; under setting [1], 216 nM; (input ligand: none) 290 nM.

As to “AGCUAUUAAUCAGGAUAUGGUCACAUGAGGAUCACCCAUGUAACGAUGAUAUAAUGUGGUCAAGACUAGAAGGGAUUGCUAACA [SameState NG2 #66] (Eterna round: R96, puzzle: Same State NG 2)”, the “apparent KD of MS2 coat protein” value by setting is: (input ligand: FMN 200 uM) 169 nM; under setting [1], 221 nM; (input ligand: none) 191 nM.

As for “AGCUAUUAAUCAGGAUAUGGUCACAUGAGGAUCACCCAUGUGUAGAUGAUAAAAUGUGGUCUACACUAGAAGGGAUUGCUAACA [SameState NG2 #60] (Eterna round: R96, puzzle: Same State NG 2)”, the “apparent KD of MS2 coat protein” value is, setting by setting: (input ligand: FMN 200 uM) 524 nM; under setting [1], 216 nM; (input ligand: none) 236 nM.

As for “AGCUAUUAAUCAGGAUAUGGUGACAUGAGGAUCACCCAUGUAUAGAUGAUUAAAUGUGGUCUAAACUAGAAGGGAUUACUAACA [SameState NG2 #54] (Eterna round: R96, puzzle: Same State NG 2)”, the “apparent KD of MS2 coat protein” value is 156 nM (input ligand: FMN 200 uM), 283 nM under setting [1] and 268 nM (input ligand: none).

“AGCUAUUACGAAGGAUAUUCUGACAUGAGGAUCACCCAUGUCUUCAUGAUUUAUUGUGAUCACGUGAAGAAGGUUGUACUAACA [SameState NG2 #26] (Eterna round: R96, puzzle: Same State NG 2)”: the “apparent KD of MS2 coat protein” value (input ligand: FMN 200 uM) was 66.4 nM, the “apparent KD of MS2 coat protein” value under setting [1] came to 72.2 nM and the “apparent KD of MS2 coat protein” value (input ligand: none) is 72.2 nM.

In the case of “AGGACGAGCACAGGAUAUCCACGGAAAAGACGCGGAGAAGGGUGAAGUCAUGGAAAGAAAAGACAUGAGGAUCACCCAUGUAAA [Dibema] (Eterna round: R96, puzzle: Same State NG 1)”, the “apparent KD of MS2 coat protein” value by setting is: (input ligand: FMN 200 uM) 26.2 nM; under setting [1], 20.5 nM; (input ligand: none) 28.4 nM.
